The source of these data is US20060235215A1 (published 2006).

What all share (test): yeast two-hybrid
Assay [1] deals with T1, O. sativa Chloroplast Ribulose Bisphosphate Carboxylase, Large Chain, prey clone aa 287-462 (Oryza sativa, UniProt P0C510 287-462).
T1 construct: prey; AD fusion; input trait library; also called OsRBCL; PN23426

The target of assay [2] is T2, Pyruvate orthophosphate dikinase-like PN20674, prey clone aa 64-263 (Oryza sativa, UniProt Q6AVA8 64-263).
T2 construct: prey; AD fusion; input trait library
T2 sequence: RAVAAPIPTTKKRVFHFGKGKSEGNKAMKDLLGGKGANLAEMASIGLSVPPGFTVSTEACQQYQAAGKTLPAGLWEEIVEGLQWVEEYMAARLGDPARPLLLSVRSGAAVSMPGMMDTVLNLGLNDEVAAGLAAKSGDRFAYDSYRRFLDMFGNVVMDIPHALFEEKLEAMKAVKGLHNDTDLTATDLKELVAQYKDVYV

Assay [3] deals with T3, Pyruvate orthophosphate dikinase-like PN20674, prey clone aa 71-298 (Oryza sativa, UniProt Q6AVA8 71-298).
T3 construct: prey; AD fusion; input trait library
T3 sequence: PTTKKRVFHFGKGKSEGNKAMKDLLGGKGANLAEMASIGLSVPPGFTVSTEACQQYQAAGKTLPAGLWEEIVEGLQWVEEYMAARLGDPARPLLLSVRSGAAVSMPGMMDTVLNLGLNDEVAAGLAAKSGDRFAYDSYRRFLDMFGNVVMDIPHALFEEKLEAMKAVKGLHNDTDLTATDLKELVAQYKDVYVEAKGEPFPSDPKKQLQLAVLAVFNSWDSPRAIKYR

In assay [4] the target is T4, Auxin induced protein-like PN24061, prey clone aa 34-236 (Oryza sativa, UniProt A2XLV9 34-236).
T4 construct: prey; AD fusion; output trait library
T4 sequence: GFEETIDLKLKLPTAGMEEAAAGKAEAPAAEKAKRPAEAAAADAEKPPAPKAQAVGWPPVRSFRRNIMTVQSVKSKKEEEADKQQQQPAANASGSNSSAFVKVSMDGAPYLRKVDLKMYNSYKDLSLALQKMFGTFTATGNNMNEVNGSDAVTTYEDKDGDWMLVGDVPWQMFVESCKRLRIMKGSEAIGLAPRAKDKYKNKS
How it is done:
(§1) Yeast carrying the target gene construct was combined with yeast carrying the activation domain library. The two yeast strains mated to form diploid yeast and were plated on media that selected for expression of one or more Ga14p-responsive reporter genes. Thus, both hybrid proteins (i.e., the target “bait” protein and the activation domain “prey” protein) were expressed in a yeast reporter strain where an interaction between the test proteins results in transcription of the reporter genes […]. Colonies that arose after incubation were selected for further characterization. The activation domain plasmid was isolated from each colony obtained in the two-hybrid search. The sequence of the insert in this construct was obtained by sequence analysis (e.g., Sanger's dideoxy nucleotide chain termination method; see Ausubel et al., 1988, including updates up to 2002). Thus, the identity of positives obtained from these searches was determined by sequence analysis against proprietary and public (e.g., GENBANK®) nucleic acid and protein databases.
The rice SGT1 protein shares 74 and 75% amino acid sequence similarity with two Arabidopsis thaliana SGT1 homologs and 45% amino acid sequence similarity with Saccharomyces cerevisiae SGT1. In yeast, SGT1 is required for cell-cycle progression at the G1/S-phase and G2/M-phase transitions. In A. thaliana, SGT1b interacts with Rar1 and mediates disease resistance. Thus, in plants, SGT1 likely controls processes that are fundamental to disease resistance and development. The rice OsSGT1 protein was chosen as a bait for these interaction studies based on its potential relevance to disease resistance and development.

Assay [5] deals with T5, O. sativa Catalase A Isozyme, prey clone aa 332-433 (Oryza sativa, UniProt P0C549 332-433).
T5 construct: prey; AD fusion; input trait library; also called OsCATA; PN20899
T5 sequence: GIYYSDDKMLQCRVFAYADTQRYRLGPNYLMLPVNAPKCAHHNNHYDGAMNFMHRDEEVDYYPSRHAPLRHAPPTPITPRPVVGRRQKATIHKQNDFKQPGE
How it is done:
as §1
(§2) This example provides newly characterized rice proteins interacting with a rice chitinase, class III (OsCHIB1), and with rice cellulose synthase catalytic subunit, RSW1-like (OsCS). An automated, high-throughput yeast two-hybrid assay technology (provided by Myriad Genetics Inc., Salt Lake City, Utah) was used to search for protein interactions with the chitinase and cellulose synthase bait proteins.

Assay [6] deals with T6, O. sativa Cellulose Synthase Catalytic Subunit, RSW1-Like, prey clone aa 411-489 (Oryza sativa, UniProt A2Y0X2 411-489).
T6 construct: prey; AD fusion; input trait library; also called OsCS; PN19707
T6 sequence: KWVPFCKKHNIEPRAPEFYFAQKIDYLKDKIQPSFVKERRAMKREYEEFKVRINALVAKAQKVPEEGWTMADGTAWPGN
How it is done:
as §1, §2

For assay [7], the target named is T7, Novel Protein PN22154, Similar to A. thaliana Glutamyl Aminopeptidase, prey clone aa 390-562 (Oryza sativa, UniProt Q6Z6L4 390-562).
T7 construct: prey; AD fusion; input trait library; also called OsPN22154
T7 sequence: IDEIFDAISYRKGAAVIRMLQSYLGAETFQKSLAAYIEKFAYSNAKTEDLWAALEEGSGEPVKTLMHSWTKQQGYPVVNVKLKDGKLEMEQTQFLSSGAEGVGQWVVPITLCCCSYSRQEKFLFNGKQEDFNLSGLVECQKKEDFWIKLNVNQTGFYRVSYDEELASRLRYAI
How it is done:
as §1, §2

In assay [8] the target is T8, Hypothetical Protein 006819-2510, Similar to Hemerocallis Senescence-Related Protein 5, bait fragment aa 1-150 (Oryza sativa).
T8 construct: bait; also called Os006819-2510; PN20462
T8 chain: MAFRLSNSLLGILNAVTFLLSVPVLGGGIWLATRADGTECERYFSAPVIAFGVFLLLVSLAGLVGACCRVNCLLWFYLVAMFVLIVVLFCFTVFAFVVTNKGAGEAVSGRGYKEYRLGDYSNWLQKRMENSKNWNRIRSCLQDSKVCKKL

Assay [9] addresses T9, Elicitor responsive protein, bait fragment aa 23-120 (Oryza sativa, UniProt Q0JBH9 23-120).
T9 construct: bait; also called OsERP; PN20696
T9 sequence: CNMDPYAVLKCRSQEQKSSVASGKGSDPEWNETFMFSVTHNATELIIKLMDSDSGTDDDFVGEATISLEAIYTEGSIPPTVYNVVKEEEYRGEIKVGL

The target in assay [10] is T10, Soluble Starch Synthase, prey clone aa 68-270 (Oryza sativa, UniProt A2Y9M4 68-270).
T10 construct: prey; AD fusion; input trait library; also called OsSSS; PN19701
T10 sequence: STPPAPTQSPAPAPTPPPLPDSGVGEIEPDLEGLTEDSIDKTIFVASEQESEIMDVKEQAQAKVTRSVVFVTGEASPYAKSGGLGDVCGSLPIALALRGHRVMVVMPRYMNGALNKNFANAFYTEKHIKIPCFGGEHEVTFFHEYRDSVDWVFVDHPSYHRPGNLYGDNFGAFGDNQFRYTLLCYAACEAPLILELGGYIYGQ

Assay [11] concerns the target T11, Soluble Starch Synthase, prey clone aa 97-263 (Oryza sativa, UniProt A2Y9M4 97-263).
T11 construct: prey; AD fusion; output trait library; also called OsSSS; PN19701
T11 sequence: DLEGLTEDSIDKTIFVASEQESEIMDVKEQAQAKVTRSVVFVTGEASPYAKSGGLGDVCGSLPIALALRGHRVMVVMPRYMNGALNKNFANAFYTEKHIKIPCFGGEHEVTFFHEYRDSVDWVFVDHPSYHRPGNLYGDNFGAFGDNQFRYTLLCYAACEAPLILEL

Assay [12] concerns the target T12, Hypothetical Protein 003118-3674 Similar to Lycopersicon esculentum Calmodulin, bait fragment aa 75-149 (Oryza sativa, UniProt Q84VG0 75-148).
T12 construct: bait; also called PN20551
T12 sequence: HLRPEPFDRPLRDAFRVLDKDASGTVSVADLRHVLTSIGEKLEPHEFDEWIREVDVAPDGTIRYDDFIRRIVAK

Assay [13] deals with T13, O. sativa Serine/Threonine Protein Phosphatase PP2A-2, Catalytic Subunit, bait fragment aa 150-308 (Oryza sativa, UniProt A2XN40 150-307).
T13 construct: bait; also called OsPP2A-2; PN20254
T13 sequence: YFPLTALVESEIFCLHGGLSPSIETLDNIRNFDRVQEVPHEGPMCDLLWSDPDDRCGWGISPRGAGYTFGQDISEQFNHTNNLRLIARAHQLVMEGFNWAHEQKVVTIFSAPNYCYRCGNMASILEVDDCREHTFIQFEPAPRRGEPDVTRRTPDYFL

T1 sequence (P0C510 287-462): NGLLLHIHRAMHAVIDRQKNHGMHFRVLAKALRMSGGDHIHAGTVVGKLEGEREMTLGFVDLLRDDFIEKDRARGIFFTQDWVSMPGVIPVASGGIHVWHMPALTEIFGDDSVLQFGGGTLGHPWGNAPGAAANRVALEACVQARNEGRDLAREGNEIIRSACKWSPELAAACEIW

B1: O. sativa 14-3-3 Protein Homolog GF14-c, bait fragment aa 1-150 (other)
chain: MSREENVYMAKLAEQAERYEEMVEYMEKVAKTVDVEELTVEERNLLSVAYKNVIGARRASWRIVSSIEQKEEGRGNEEHVTLIKEYRGKIEAELSKICDGILKLLDSHLVPSSTAAESKVFYLKMKGDYHRYLAEFKTGAERKEAAESTM
notes: bait; also called OsGF14-c; PN12464
Regarding B1, in assay [1], the binding result is “binds”.

B2: Elicitor responsive protein, bait fragment aa 50-145 (other)
chain: PEWNETFMFSVTHNATELIIKLMDSDSGTDDDFVGEATISLEAIYTEGSIPPTVYNVVKEEEYRGEIKVGLTFTPEDDRDRGLSEEDIGGWKQSS
notes: bait; also called OsERP; PN20696
For B2, the binding result in assay [2] and in assay [3] was “binds” in each case.

B3: OsSGT1, bait fragment aa 200-368 (other)
chain: QMLSVSIEVPGEEPYHFQPRLFSKIIPEKSRYQVLSTKVEIRLAKAEQITWTSLDYDKKPKAVPQKIIPPAESAQRPSYPSSKSKKDWDKLEAEVKKEEKEEKLEGDAALNKFFRDIYSDADEDMRRAMMKSFVESNGTVLSTNWKDVGSKKVEGSPPDGMELKKWEY
notes: bait; also called PN20285
As to B3, in [4], the binding result is “binds”.

B4: O. sativa Chitinase, Class III, bait fragment aa 10-200 (enzyme)
chain: YIGAQFTGVRFSDVPVNPGLSFHFILAFAIDYFMATQSSKPAPANGVFAPYWDTANLSPAAVAAAKAAHPNLSVILALGGDTVQNTGVNATFAPTSSVDAWVRNAADSVSGLIDAYGLDGVDVDYEHFAAGVDTFVECIGRLLTELKARHPNIATSIAPFEHPVVQRYYQPLWRRYAGVIDYVNFQFYGYG
notes: bait; also called OsCHIB1; PN19651
On to B4, for which the binding result in assay [5], in [6] and in assay [7] was “binds” in each case.

B5: Novel Protein PN29037, prey clone aa 73-165 (other)
chain: VVFDKDGVLEQIGEGKGYVDMSTVDAATSCKISEAIKQKGGAFVEAPVSGSKKPAEDGQLVILAAGDKVLYDDMVPAFDVLGKKSFFLGEIGN
notes: prey; AD fusion; input trait library; also called OsPN29037
With B5, in [8], the binding result is “binds”.

B6: Receptor-like protein kinase-like PN31085, prey clone aa 378-553 (other)
chain: NGTISDSLGNLSELSDINLIGNNLTGHVPDSLTSLRLLQKLDLSGNDLTGPLPTFSPSVKVNVTGNLNFNGTAPGSAPSKDTPGSSSSRAPTLPGQGVLPENKKKRSAVVLATTIPVAVSVVALASVCAVLIFRKKRGSVPPNAASVVVHPRENSDPDNLVKIVMVNNDGNSSSTQ
notes: prey; AD fusion; output trait library
With B6, in [9], the binding result is listed as “binds”.

B7: O. sativa Calreticulin Precursor, bait fragment aa 250-425 (other)
chain: PKEIPDPDAKKPEAGADEEDGEWTAPTIRNPEYKGPWKQKKIKNPNYQGKWKPPMIATPDFQDDPYIYAFDSLKSIGIELWQVKSGTLFDNILITDDAALAKTFAEETWAKHKDAEKAAFDEAEKKKEEEEAAKAGEDDDDLDDEDAEDEDKADEKADSDAEDGKDSDDEKHDEL
notes: bait; text says OsCRTC has 424 aa; also called OsCRTC; PN20544
Turning to B7, the binding result in assay [10] and in [11] was “binds” throughout.

B8: Oryza sativa Putative Myosin, prey clone aa 685-888 (other)
chain: IYEQGLVLQQLKCCGVLEVVRISRSGYPTRMTHQKFARRYGFLLLEDVASQDPLSVSVAILHQFNILPEMYQVGYTKLFFRTGQIGKLEDTRNRTLHGILRVQSCFRGHQARRHARERIRGVLALQSFIRGENARKMYSSLARKHRAAIILQRNLKCWLARRYFVNIRKASVVIQSGIRGCLVRRCAGNVDLLNVLREFESKKE
notes: prey; AD fusion; output trait library; also called OsPN23878
B8: the binding result in assay [8] is “binds”.

B9: Oryza sativa Putative Myosin, prey clone aa 824-935 (other)
chain: SLARKHRAAIILQRNLKCWLARRYFVNIRKASVVIQSGIRGCLVRRCAGNVDLLNVLREFESKKEAEGDQILIKASFLAELQRRILKAEATVREKDEENEMLQQRLQQYENR
notes: as for B8
For the molecule B9, in assay [12], the binding result is “binds”.

B10: Hypothetical Protein 011994-D16, Similar to Z. mays DnaJ protein, prey clone aa 99-368 (other)
chain: FGPSFGGGGSSRGRRQRRGEDVIHPLKVSLEDLYNGTSKKLSLSRNVLCAKCKGKGSKSGASMRCPGCQGSGMKITIRQLGPSMIQQMQQPCNECKGTGESINEKDRCPGCKGEKVIQEKKVLEVHVEKGMQHNQKITFPGEADEAPDTVTGDIVFVLQQKDHSKFKRKGDDLFYEHTLSLTEALCGFQFVLTHLDNRQLLIKSNPGEVVKPDQFKAINDEGMPMYQRPFMKGKLYIHFTVEFPDSLAPEQCKALEAVLPPKPASQLTEM
notes: prey; AD fusion; output trait library; also called Os011994-D16; PN20618
As to B10, the binding result in assay [13] is listed as “binds”.
